Experimental data published in PMC3799435, “Dissecting the interactions of SERRATE with RNA and DICER-LIKE 1 in Arabidopsis microRNA precursor processing” (Nucleic Acids Research, 2013).

Key:
[1] = biological target: T1, SEΔ497-547 (Arabidopsis thaliana, UniProt Q9ZVD0 1-720, del497-547); experiment: SPR; 50 mM NaCl, 20 nM; as wild-type SE; SPR (Biacore T100): 20 mM Tris-HCl pH 7.0, 50 or 150 mM NaCl, 2 mM β-ME (0.005% P20 for SE variants); proteins 42-43 nM (Fig 2E), SE 20 nM (Fig 4), 16 nM DCL1 for complex; temperature not stated; details: protein: recombinant; tags: N-terminal His6; vector also has inserted myc and Strep-tag II; label: 5'-biotin on strand 1; fork: 40 bp duplex; 20-nt 3' tail of strand 1 and 20-nt 5' tail of strand 2 unpaired; other end blunt
T1 sequence: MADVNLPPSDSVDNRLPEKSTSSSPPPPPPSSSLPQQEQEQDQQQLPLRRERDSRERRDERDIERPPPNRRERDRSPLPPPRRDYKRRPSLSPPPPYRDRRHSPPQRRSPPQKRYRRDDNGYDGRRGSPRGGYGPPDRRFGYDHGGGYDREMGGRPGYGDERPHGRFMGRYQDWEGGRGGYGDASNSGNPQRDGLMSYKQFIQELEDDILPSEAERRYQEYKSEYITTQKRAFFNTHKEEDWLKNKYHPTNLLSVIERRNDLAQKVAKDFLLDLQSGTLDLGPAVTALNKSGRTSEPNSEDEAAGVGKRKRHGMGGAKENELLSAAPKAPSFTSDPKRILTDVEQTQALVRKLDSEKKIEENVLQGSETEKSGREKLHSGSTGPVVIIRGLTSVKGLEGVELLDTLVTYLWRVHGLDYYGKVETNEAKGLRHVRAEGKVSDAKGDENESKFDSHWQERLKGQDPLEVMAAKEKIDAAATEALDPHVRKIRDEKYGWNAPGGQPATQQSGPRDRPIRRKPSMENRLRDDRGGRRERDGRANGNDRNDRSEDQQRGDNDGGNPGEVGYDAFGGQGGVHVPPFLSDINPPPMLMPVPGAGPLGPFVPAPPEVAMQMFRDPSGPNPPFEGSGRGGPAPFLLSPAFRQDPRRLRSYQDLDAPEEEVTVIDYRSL

[2] = biological target: T2, SE1-701 (Arabidopsis thaliana, UniProt Q9ZVD0 1-701, del702-720); experiment: as above; details: protein: recombinant; tags: N-terminal His6; vector also has inserted myc and Strep-tag II; label: 5'-biotin on strand 1; fork: 40 bp duplex; 20-nt 3' tail of strand 1 and 20-nt 5' tail of strand 2 unpaired; other end blunt
T2 sequence: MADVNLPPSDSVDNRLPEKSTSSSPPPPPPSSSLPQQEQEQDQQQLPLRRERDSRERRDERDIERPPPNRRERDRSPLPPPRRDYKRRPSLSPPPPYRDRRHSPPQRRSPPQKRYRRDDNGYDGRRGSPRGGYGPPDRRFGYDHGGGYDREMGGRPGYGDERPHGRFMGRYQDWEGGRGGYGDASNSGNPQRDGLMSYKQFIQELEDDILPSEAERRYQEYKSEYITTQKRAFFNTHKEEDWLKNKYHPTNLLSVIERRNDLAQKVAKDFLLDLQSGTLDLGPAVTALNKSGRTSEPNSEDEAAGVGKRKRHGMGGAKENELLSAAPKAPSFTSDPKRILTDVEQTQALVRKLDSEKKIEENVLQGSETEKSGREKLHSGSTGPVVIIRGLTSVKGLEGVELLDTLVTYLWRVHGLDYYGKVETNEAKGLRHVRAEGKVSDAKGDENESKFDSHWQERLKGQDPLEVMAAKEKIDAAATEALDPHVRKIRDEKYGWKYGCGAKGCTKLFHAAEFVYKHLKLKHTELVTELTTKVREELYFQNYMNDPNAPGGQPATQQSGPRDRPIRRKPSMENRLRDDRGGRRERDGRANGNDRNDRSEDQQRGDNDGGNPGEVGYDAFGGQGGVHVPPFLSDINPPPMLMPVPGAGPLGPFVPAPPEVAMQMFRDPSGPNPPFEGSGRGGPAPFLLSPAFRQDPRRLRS

[3] = biological target: T3, SE (untagged) (Arabidopsis thaliana, UniProt Q9ZVD0 1-720); experiment: SPR; 50 mM NaCl; weaker than DCL1, rapid dissociation; SPR (Biacore T100): 20 mM Tris-HCl pH 7.0, 50 or 150 mM NaCl, 2 mM β-ME (0.005% P20 for SE variants); proteins 42-43 nM (Fig 2E), SE 20 nM (Fig 4), 16 nM DCL1 for complex; temperature not stated; details: protein: recombinant; tags: none (His6-StrepII-SUMOstar removed); label: 5'-biotin on strand 1; fork: 40 bp duplex; 20-nt 3' tail of strand 1 and 20-nt 5' tail of strand 2 unpaired; other end blunt
T3 sequence: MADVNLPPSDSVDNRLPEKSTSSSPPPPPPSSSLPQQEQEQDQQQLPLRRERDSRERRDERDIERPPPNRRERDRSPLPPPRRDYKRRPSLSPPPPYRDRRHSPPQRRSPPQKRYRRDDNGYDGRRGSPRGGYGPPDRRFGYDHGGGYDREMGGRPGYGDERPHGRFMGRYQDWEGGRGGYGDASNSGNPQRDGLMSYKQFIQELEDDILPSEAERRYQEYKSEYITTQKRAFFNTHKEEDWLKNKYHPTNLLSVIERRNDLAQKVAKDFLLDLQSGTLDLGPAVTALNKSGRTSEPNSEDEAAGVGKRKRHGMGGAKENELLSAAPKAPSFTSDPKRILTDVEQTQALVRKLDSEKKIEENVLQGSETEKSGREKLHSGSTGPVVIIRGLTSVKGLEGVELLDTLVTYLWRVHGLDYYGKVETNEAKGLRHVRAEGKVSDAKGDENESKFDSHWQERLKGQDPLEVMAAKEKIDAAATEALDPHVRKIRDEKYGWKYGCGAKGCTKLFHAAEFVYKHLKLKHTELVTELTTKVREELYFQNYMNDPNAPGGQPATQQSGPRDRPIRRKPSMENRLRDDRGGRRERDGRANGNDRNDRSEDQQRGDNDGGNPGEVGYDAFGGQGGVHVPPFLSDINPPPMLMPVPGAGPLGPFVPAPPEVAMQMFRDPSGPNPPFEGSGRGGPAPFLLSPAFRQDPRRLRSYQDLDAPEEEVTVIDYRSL

Measured: binding result

B1: forked-RNA (dsRNA)
RNA 1: CAACCCAAGAUAGAUCAUGCAGGCAGCUUCAUCAGAUGCCGCUCCCUCUUUUUUUCUCUA
RNA 2: GCUCCCUCUUUUUUUCUCUAGGCAUCUGAUGAAGCUGCCUGCAUGAUCUAUCUUGGGUUG
binds: all assays above
